The target in assay [1] is T1, Streptavidin (Streptomyces avidinii, UniProt P22629).
T1 construct: purchased ForteBio
Put plainly: Recombinant peptide chip screen with HRP- or Europium-labeled Streptavidin. The format is binding. The conditions noted are these: for effect of dimerisation on chip signal/affinity: 12 glycine linker spaced dimer versus monomer, HRP-Streptavidin signal. The procedure: Competent E. coli One Shot® BL21 Star™ (DE3) cells (Thermo Fisher Scientific) carrying the gene for T7 RNA polymerase under control of isopropyl β-D-1-thiogalactopyranoside (IPTG)-inducible lacUV5 promotor were transformed with respective expression libraries, and plated onto large square Q-trays. Individual colonies were robotically picked (QPix2^xt, Genetix) into suitable 384 well plates containing liquid LB medium supplemented with 100 μg/ml ampicillin, and cultivated overnight at 37 °C. Alternative route was to directly split appropriately diluted (as confirmed by plating onto LB-amp agar plates) transformation reactions (after 1 h recovery in antibiotics-free SOC medium) into 384 well plates via a programmable Flexdrop Precision Reagent Dispenser (Perkin Elmer). The next day, clones were robotically arrayed onto a 0.45 μm pore size PROTRAN™ nitrocellulose sheet (Whatman) cut in the form of the original masterplate, applying a 1 × 1, 5 × 1, 5 × 5, or 10 × 10 pattern (such that each clone or pool is gridded in 1, 5 or 25 or 100 replicates each). Following a 6 to 8 h incubation interval on top of solid LB at 30 °C, peptide expression was achieved by transferring these membrane-imprinted clones onto LB agar plates supplemented with 1 mM IPTG, followed by a 2 h incubation interval at 37 °C. Cells were then directly lysed via transfer into a Tris-buffered saline (TBS) solution containing 0.05% Tween-20 and 3% blotting-grade milk powder. Membranes were in refined dot-blot reminiscent procedure challenged with (horseradish peroxidase) HRP- or Europium labeled Streptavidin (in 1:1000 to 1:5000 dilution in TBS-0.05% Tween) for 1 h at RT, washed 3 times in TBS-0.05% Tween, and scanned with either a ChemiDoc imaging system (Quantity One® analysis software, BioRad) after exposure to Immobilon™ Western chemiluminescent substrate (Millipore, Merck), or directly with a prototypic SpectraMax® Paradigm® multi-mode detection Platform (ScanLater™ Western Blot Detection Cartridge, Molecular Devices).
Screening parameters were first of all optimized: signal-to-background ratios and realizable detection limits were assessed by analyzing the associations between published Strep-tagI and II peptides (as well as 12G linker spaced dimer derived thereof) and either commercially available HRP- or fluorescence labeled Streptavidin. […] We next further optimized E. coli growth times (from 0 to 24 h at 2 different temperatures), induction intervals, critical cell densities required, printing conditions, lysis and detection conditions, etc. (Fig. 2).

For assay [2], the target named is T1, Streptavidin. Set-up: method as in 4 sources, one per row (each row's own in cited_ref): ref see discussion section ([26], [33], [34]) ||| ref [35], [36] = [35]; PMID 26406477; doi:10.1371/journal.pone.0139137; 35. Fogen D Engineering Streptavidin and a Streptavidin-Binding Peptide with Infinite Binding Affinity and Reversible Binding Capability: Purification of a Tagged Recombinant Protein to High Purity vi || [36]; PMID 11722181; doi:10.1006/prep.2001.1515; 36. Keefe AD One-step purification of recombinant proteins using a nanomolar-affinity streptavidin-binding peptide, the SBP-Tag Protein Expr Purif 2001 23 3 440 446 10.1006/prep.2001.1515 11722181 ||| ref [37] = [37]; PMID 14680960; doi:10.1016/j.pep.2003.08.014; 37. Lamla T Erdmann VA The Nano-tag, a streptavidin-binding peptide for the purification and detection of recombinant proteins Protein Expr Purif 2004 33 1 39 47 10.1016/j.pep.2003.08.014 14680960 ||| ref [26], [33], [34] = [26]; PMID 8636976; doi:10.1006/jmbi.1996.0061; 26. Schmidt TG Molecular interaction between the Strep-tag affinity peptide and its cognate target, streptavidin J Mol Biol 1996 255 5 753 766 10.1006/jmbi.1996.0061 8636976 || [33]; PMID 10796988; doi:10.1016/S1050-3862(99)00033-9; 33. Skerra A Schmidt TG Applications of a peptide ligand for streptavidin: the Strep-tag Biomol Eng 1999 16 1–4 79 86 10.1016/S1050-3862(99)00033-9 10796988 || [34]; PMID 11910031; doi:10.1110/ps.4150102; 34. Korndorfer IP Skerra A Improved affinity of engineered streptavidin for the Strep-tag II peptide is due to a fixed open conformation of the lid-like loop at the binding site Protein Sci 2002 11 4. The conditions noted are these: equilibrium dissociation constant; ref [35], [36]; read-out: literature KD of SBP-tag, Streptavidin; cited from earlier work.

“Also recorded” adds a separate entry of the source. Where no end group is shown, it is not given here.

T1 sequence (P22629 25-183): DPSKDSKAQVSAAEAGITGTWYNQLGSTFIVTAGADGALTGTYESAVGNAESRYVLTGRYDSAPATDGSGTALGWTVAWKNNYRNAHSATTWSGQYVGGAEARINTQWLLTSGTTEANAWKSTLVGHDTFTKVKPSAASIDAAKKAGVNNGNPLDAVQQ

As to “B5 dimer: B5 dimerized, spaced by an analogous 12 glycine linker (VSHPQAPFGGGGGGGGGGGGVSHPQAPF; not fully specified)”, the “effect of dimerisation on chip signal/affinity” value (“effect … on chip signal/affinity” below) in assay [1] was “could not increase affinity by linear dimerization”. Take “Dim12G: 12 glycine (G) linker spaced dimer resembling a published Twin-conformation; fusion of Strep-tagI and Strep-tagII monomers [reference compound]”: the “effect … on chip signal/affinity” value in assay [1] is on record as “performs superior in comparison to a single monomer”. Besides, the “binder strength on test peptide chip” value in assay [1] (in comparison to negative control, HRP- or fluorescence-labeled Streptavidin) is “higher affinity”. Consider “F14.5 dimer: 12G–spaced dimeric F14.5 (CSGSYGSCGGGGGGGGGGGGCSGSYGSC; cysteine pairing not given here; also: fused to GST, end not given here)”, for which the “effect … on chip signal/affinity” value in assay [1] is given as “remained fairly constant; also recorded: could not increase affinity by linear dimerization”. For orientation: Kd means the constant that tells how readily two partners part at equilibrium. Take SBP-tag: 38 AA encompassing SBP-tag: the Kd in assay [2] is 2.5 nM.

Values taken from PMC5463365, “Assembly and use of high-density recombinant peptide chips for large-scale ligand screening is a practical alternative to synthetic peptide libraries” (BMC Genomics, 2017).
